Measured values as given in the supplement of paper PMC9112550, “Optimization of the antimicrobial peptide Bac7 by deep mutational scanning” (BMC Biology, 2022).

System: Escherichia coli TOP10
Test: shrunken log2 fold change of peptide-encoding DNA abundance (4.5 h post-induction vs induction); higher = less antimicrobial activity (less host growth inhibition)
Conditions: time post-induction: 4.5 h; library: site-saturation at positions 5, 18, 19, 20
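Note: peptides expressed intracellularly from a pBAD plasmid library in pooled LB shake-flask culture, induced with 0.3% L-arabinose, DNA abundance read by NGS, three biological replicates, DESeq2 with apeglm shrinkage.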

Sequence | shrunken log2 fold change
RRIRLRPPRLPRPRPRPLVEPRP | 0.222
RRIRWRPPRLPRPRPRPQLMPRP | 0.13
RRIRPRPPRLPRPRPRPAKKPRP | 0.0429
RRIRMRPPRLPRPRPRPECHPRP | -0.0482
RRIRNRPPRLPRPRPRPIYIPRP | 0.0152
RRIRSRPPRLPRPRPRPALLPRP | 0.42
RRIRSRPPRLPRPRPRPGNRPRP | -0.00644
RRIRARPPRLPRPRPRPMIWPRP | 0.415
RRIRTRPPRLPRPRPRPWLDPRP | -0.181
RRIRWRPPRLPRPRPRPFGGPRP | 0.0764
RRIRARPPRLPRPRPRPILAPRP | 0.147
RRIRKRPPRLPRPRPRPACAPRP | 1
RRIRCRPPRLPRPRPRPTHPPRP | 0.164
RRIRRRPPRLPRPRPRPNGRPRP | -0.0152
RRIRGRPPRLPRPRPRPATGPRP | 0.308
RRIRYRPPRLPRPRPRPMAYPRP | -0.0189
RRIRFRPPRLPRPRPRPIDAPRP | -0.289
RRIRHRPPRLPRPRPRPCYIPRP | -0.0479
RRIRERPPRLPRPRPRPDQEPRP | -0.0156
RRIRKRPPRLPRPRPRPSGPPRP | 0.0366
RRIRFRPPRLPRPRPRPRCKPRP | 0.0452
RRIRQRPPRLPRPRPRPVEVPRP | -0.0922
RRIRRRPPRLPRPRPRPWQVPRP | 0.0694
RRIRTRPPRLPRPRPRPGCGPRP | 0.385
RRIRTRPPRLPRPRPRPIAPPRP | -0.0608

Sequence | shrunken log2 fold change
RRIRQRPPRLPRPRPRPPGMPRP | 0.256
RRIRYRPPRLPRPRPRPCPPPRP | -0.839
RRIRLRPPRLPRPRPRPMKIPRP | -0.028
RRIRTRPPRLPRPRPRPNRHPRP | -0.36
RRIRCRPPRLPRPRPRPTAHPRP | 0.181
RRIRDRPPRLPRPRPRPSCLPRP | -0.0009
RRIRMRPPRLPRPRPRPHEDPRP | 0.465
RRIRLRPPRLPRPRPRPINFPRP | -0.426
RRIRNRPPRLPRPRPRPQSHPRP | -0.68
RRIRARPPRLPRPRPRPLYLPRP | -0.367
RRIRRRPPRLPRPRPRPEIIPRP | 0.0119
RRIRRRPPRLPRPRPRPLEFPRP | -0.0524
RRIRYRPPRLPRPRPRPMKKPRP | 0.0048
RRIRQRPPRLPRPRPRPQMFPRP | 0.00489
RRIRQRPPRLPRPRPRPFTFPRP | -0.249
RRIRVRPPRLPRPRPRPHAKPRP | 0.0066
RRIRERPPRLPRPRPRPYVAPRP | -0.72
RRIRPRPPRLPRPRPRPYPFPRP | -0.0133
RRIRARPPRLPRPRPRPICQPRP | 0.216
RRIRARPPRLPRPRPRPTHPPRP | 0.586
RRIRDRPPRLPRPRPRPDTEPRP | 0.0738
RRIRGRPPRLPRPRPRPTSGPRP | 0.917
RRIRFRPPRLPRPRPRPELWPRP | 0.677
RRIRIRPPRLPRPRPRPSGFPRP | -0.175
RRIRERPPRLPRPRPRPHTHPRP | -1.01

Sequence | shrunken log2 fold change
RRIRFRPPRLPRPRPRPWIPPRP | -0.432
RRIRTRPPRLPRPRPRPSRYPRP | -0.23
RRIRCRPPRLPRPRPRPYKKPRP | 0.104
RRIRFRPPRLPRPRPRPTVTPRP | 0.052
RRIRTRPPRLPRPRPRPNYMPRP | 0.0222
RRIRYRPPRLPRPRPRPHLIPRP | -0.103
RRIRRRPPRLPRPRPRPCELPRP | -0.0595
RRIRRRPPRLPRPRPRPCRGPRP | 0.17
RRIRGRPPRLPRPRPRPTHNPRP | 0.443
RRIRARPPRLPRPRPRPIWCPRP | 0.00499
RRIRHRPPRLPRPRPRPSSKPRP | -0.0453
RRIRERPPRLPRPRPRPHVYPRP | -0.764
RRIRLRPPRLPRPRPRPCWAPRP | -0.0392
RRIRKRPPRLPRPRPRPFKTPRP | 0.427
RRIRHRPPRLPRPRPRPSDLPRP | -0.441
RRIRDRPPRLPRPRPRPTDIPRP | -0.231
RRIRKRPPRLPRPRPRPAQCPRP | -0.0613
RRIRFRPPRLPRPRPRPMYHPRP | -1.01
RRIRMRPPRLPRPRPRPHNNPRP | -0.153
RRIRHRPPRLPRPRPRPTYGPRP | -0.106
RRIRDRPPRLPRPRPRPDILPRP | 0.111
RRIRWRPPRLPRPRPRPSNQPRP | -0.561
RRIRDRPPRLPRPRPRPQPTPRP | 0.0584
RRIRYRPPRLPRPRPRPVKCPRP | -1.32
RRIRQRPPRLPRPRPRPHYTPRP | -0.509

Sequence | shrunken log2 fold change
RRIRERPPRLPRPRPRPHSWPRP | -0.183
RRIRFRPPRLPRPRPRPRRQPRP | 0.108
RRIRMRPPRLPRPRPRPPGRPRP | 0.849
RRIRWRPPRLPRPRPRPTVDPRP | 0.296
RRIRFRPPRLPRPRPRPYHWPRP | -0.208
RRIRWRPPRLPRPRPRPCQQPRP | -0.219
RRIRYRPPRLPRPRPRPRWSPRP | -0.225
RRIRPRPPRLPRPRPRPVGPPRP | 0.427
RRIRERPPRLPRPRPRPTHPPRP | 0.447
RRIRCRPPRLPRPRPRPGGQPRP | -0.218
RRIRDRPPRLPRPRPRPMCRPRP | -0.0461
RRIRYRPPRLPRPRPRPNMQPRP | -0.594
RRIRARPPRLPRPRPRPACVPRP | 0.707
RRIRRRPPRLPRPRPRPYKFPRP | 0.0202
RRIRERPPRLPRPRPRPTCHPRP | -0.186
RRIRWRPPRLPRPRPRPQYSPRP | -0.653
RRIRARPPRLPRPRPRPMYGPRP | 0.22
RRIRWRPPRLPRPRPRPEWNPRP | 0.482
RRIRERPPRLPRPRPRPEDIPRP | -0.00136
RRIRHRPPRLPRPRPRPTWTPRP | 2.15e-05
RRIRQRPPRLPRPRPRPTLSPRP | 0.322
RRIRDRPPRLPRPRPRPRWWPRP | 0.0238
RRIRGRPPRLPRPRPRPFDYPRP | -0.145
RRIRQRPPRLPRPRPRPQPRPRP | 0.48
RRIRNRPPRLPRPRPRPLLKPRP | -0.539

Sequence | shrunken log2 fold change
RRIRARPPRLPRPRPRPAQRPRP | 0.695
RRIRLRPPRLPRPRPRPNCTPRP | -0.24
RRIRKRPPRLPRPRPRPVRLPRP | 0.203
RRIRQRPPRLPRPRPRPLYSPRP | -0.649
RRIRWRPPRLPRPRPRPVFWPRP | 0.386
RRIRGRPPRLPRPRPRPIDHPRP | 0.115
RRIRGRPPRLPRPRPRPCPDPRP | 0.359
RRIRQRPPRLPRPRPRPQEAPRP | 0.0238
RRIRTRPPRLPRPRPRPRWPPRP | 0.424
RRIRVRPPRLPRPRPRPFAEPRP | 0.171
RRIRMRPPRLPRPRPRPLNPPRP | 0.0743
RRIRFRPPRLPRPRPRPMAEPRP | 0.0579
RRIRWRPPRLPRPRPRPHDMPRP | -0.202
RRIRIRPPRLPRPRPRPFGYPRP | -0.478
RRIRQRPPRLPRPRPRPYMVPRP | -0.176
RRIRARPPRLPRPRPRPNAIPRP | 0.201
RRIRHRPPRLPRPRPRPWFEPRP | -0.366
RRIRHRPPRLPRPRPRPNFSPRP | -0.415
RRIRERPPRLPRPRPRPRMVPRP | -0.462
RRIRCRPPRLPRPRPRPWWAPRP | 1.27
RRIRGRPPRLPRPRPRPQCFPRP | 0.352
RRIRPRPPRLPRPRPRPTTWPRP | 0.176
RRIRNRPPRLPRPRPRPRLVPRP | 0.114
RRIRMRPPRLPRPRPRPCCPPRP | -0.0946
RRIRVRPPRLPRPRPRPNWTPRP | 0.0136
